T1: EsCas13d, nuclease-dead (Eubacterium siraeum, UniProt B0MS50, R295A;H300A;R849A;H854A)
T1 sequence: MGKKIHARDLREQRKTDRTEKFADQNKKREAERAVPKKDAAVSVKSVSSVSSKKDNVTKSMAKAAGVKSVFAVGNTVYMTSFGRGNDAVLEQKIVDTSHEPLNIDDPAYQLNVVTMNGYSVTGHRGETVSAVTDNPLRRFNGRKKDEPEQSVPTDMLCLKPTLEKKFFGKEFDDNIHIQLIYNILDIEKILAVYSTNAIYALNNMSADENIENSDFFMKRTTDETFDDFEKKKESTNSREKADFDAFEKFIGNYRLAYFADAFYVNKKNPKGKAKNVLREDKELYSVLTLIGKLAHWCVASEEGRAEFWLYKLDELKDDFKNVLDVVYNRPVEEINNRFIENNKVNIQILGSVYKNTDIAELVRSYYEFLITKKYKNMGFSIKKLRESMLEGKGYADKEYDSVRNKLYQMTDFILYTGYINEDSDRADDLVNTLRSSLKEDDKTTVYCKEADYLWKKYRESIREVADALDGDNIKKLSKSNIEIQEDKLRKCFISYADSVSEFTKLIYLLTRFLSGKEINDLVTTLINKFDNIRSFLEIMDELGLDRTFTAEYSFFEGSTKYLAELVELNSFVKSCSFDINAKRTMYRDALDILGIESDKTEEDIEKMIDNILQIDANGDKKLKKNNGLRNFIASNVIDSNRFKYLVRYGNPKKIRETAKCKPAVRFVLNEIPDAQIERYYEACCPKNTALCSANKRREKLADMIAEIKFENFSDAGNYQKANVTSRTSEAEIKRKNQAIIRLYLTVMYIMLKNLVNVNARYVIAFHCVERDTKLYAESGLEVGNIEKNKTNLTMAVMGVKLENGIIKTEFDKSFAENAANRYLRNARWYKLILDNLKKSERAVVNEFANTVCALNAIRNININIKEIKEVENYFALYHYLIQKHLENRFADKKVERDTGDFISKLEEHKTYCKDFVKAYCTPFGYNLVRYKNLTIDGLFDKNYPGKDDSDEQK

B1: target 1 A16C,C21U (mixed)
RNA 1: CACCCGUGCAAAAAUGCAGGGGUCUAAAACUGAGCGGAUAACCUCUCUAUGG
RNA 2: GGGAAUGGAUCCACAUCUACGAAUUCGUACUAUAGCGAGGUUAUCCGCUCACCGAGAUCGGAAGAGCACACGU
B2: target 1 A1G,U3C (mixed)
RNA 1: CACCCGUGCAAAAAUGCAGGGGUCUAAAACUGAGCGGAUAACCUCUCUAUGG
RNA 2: GGGAAUGGAUCCACAUCUACGAAUUCGUACCAUAGAGAGGUUAUCCGCCCGCCGAGAUCGGAAGAGCACACGU
B3: target 3 insA 3' of 7,insA 3' of 7 (mixed)
RNA 1: CACCCGUGCAAAAUUGCAGGGGUCUAAAACGACCUGAAUAUUUCAGAUCAAA
RNA 2: GGGAAUGGAUCCACAUCUACGAAUUCGUUUUUGAUCUGAAAUAUUAACAGGUCUGCAGAUCGGAAGAGCACACGU
B4: target 3 A5G,C6G (mixed)
RNA 1: CACCCGUGCAAAAUUGCAGGGGUCUAAAACGACCUGAAUAUUUCAGAUCAAA
RNA 2: GGGAAUGGAUCCACAUCUACGAAUUCGUUUUUGAUCUGAAAUAUUGGGGUCUGCAGAUCGGAAGAGCACACGU
B5: target 3 insA 3' of 22,insG 3' of 8 (mixed)
RNA 1: CACCCGUGCAAAAUUGCAGGGGUCUAAAACGACCUGAAUAUUUCAGAUCAAA
RNA 2: GGGAAUGGAUCCACAUCUACGAAUUCGUUUAUUGAUCUGAAAUAUGUCAGGUCUGCAGAUCGGAAGAGCACACGU
B6: target 3 insU 3' of 5,insC 3' of 5 (mixed)
RNA 1: CACCCGUGCAAAAUUGCAGGGGUCUAAAACGACCUGAAUAUUUCAGAUCAAA
RNA 2: GGGAAUGGAUCCACAUCUACGAAUUCGUUUUUGAUCUGAAAUAUUCAUCGGUCUGCAGAUCGGAAGAGCACACGU
B7: target 3 insA 3' of 10,insC 3' of 8 (mixed)
RNA 1: CACCCGUGCAAAAUUGCAGGGGUCUAAAACGACCUGAAUAUUUCAGAUCAAA
RNA 2: GGGAAUGGAUCCACAUCUACGAAUUCGUUUUUGAUCUGAAAUAAUCUCAGGUCUGCAGAUCGGAAGAGCACACGU
B8: target 3 insA 3' of 22,insU 3' of 6 (mixed)
RNA 1: CACCCGUGCAAAAUUGCAGGGGUCUAAAACGACCUGAAUAUUUCAGAUCAAA
RNA 2: GGGAAUGGAUCCACAUCUACGAAUUCGUUUAUUGAUCUGAAAUAUUCUAGGUCUGCAGAUCGGAAGAGCACACGU
B9: target 3 G3U,A9G (mixed)
RNA 1: CACCCGUGCAAAAUUGCAGGGGUCUAAAACGACCUGAAUAUUUCAGAUCAAA
RNA 2: GGGAAUGGAUCCACAUCUACGAAUUCGUUUUUGAUCUGAAAUGUUCAGUUCUGCAGAUCGGAAGAGCACACGU
B10: target 3 insA 3' of 2,insG 3' of 2 (mixed)
RNA 1: CACCCGUGCAAAAUUGCAGGGGUCUAAAACGACCUGAAUAUUUCAGAUCAAA
RNA 2: GGGAAUGGAUCCACAUCUACGAAUUCGUUUUUGAUCUGAAAUAUUCAGGUAGCUGCAGAUCGGAAGAGCACACGU
B11: target 3 C6A,U22A (mixed)
RNA 1: CACCCGUGCAAAAUUGCAGGGGUCUAAAACGACCUGAAUAUUUCAGAUCAAA
RNA 2: GGGAAUGGAUCCACAUCUACGAAUUCGUUAUUGAUCUGAAAUAUUAAGGUCUGCAGAUCGGAAGAGCACACGU
B12: target 3 insC 3' of 7,insC 3' of 4 (mixed)
RNA 1: CACCCGUGCAAAAUUGCAGGGGUCUAAAACGACCUGAAUAUUUCAGAUCAAA
RNA 2: GGGAAUGGAUCCACAUCUACGAAUUCGUUUUUGAUCUGAAAUAUUCCAGCGUCUGCAGAUCGGAAGAGCACACGU
B13: target 3 del4 (mixed)
RNA 1: CACCCGUGCAAAAUUGCAGGGGUCUAAAACGACCUGAAUAUUUCAGAUCAAA
RNA 2: GGGAAUGGAUCCACAUCUACGAAUUCGUUUUUGAUCUGAAAUAUUCAGUCUGCAGAUCGGAAGAGCACACGU
B14: target 3 insU 3' of 13,insC 3' of 3 (mixed)
RNA 1: CACCCGUGCAAAAUUGCAGGGGUCUAAAACGACCUGAAUAUUUCAGAUCAAA
RNA 2: GGGAAUGGAUCCACAUCUACGAAUUCGUUUUUGAUCUGAUAAUAUUCAGGCUCUGCAGAUCGGAAGAGCACACGU
B15: target 3 G4U (mixed)
RNA 1: CACCCGUGCAAAAUUGCAGGGGUCUAAAACGACCUGAAUAUUUCAGAUCAAA
RNA 2: GGGAAUGGAUCCACAUCUACGAAUUCGUUUUUGAUCUGAAAUAUUCAUGUCUGCAGAUCGGAAGAGCACACGU
B16: target 3 U7G,U8C (mixed)
RNA 1: CACCCGUGCAAAAUUGCAGGGGUCUAAAACGACCUGAAUAUUUCAGAUCAAA
RNA 2: GGGAAUGGAUCCACAUCUACGAAUUCGUUUUUGAUCUGAAAUACGCAGGUCUGCAGAUCGGAAGAGCACACGU
B17: target 3 C1U,U21A (mixed)
RNA 1: CACCCGUGCAAAAUUGCAGGGGUCUAAAACGACCUGAAUAUUUCAGAUCAAA
RNA 2: GGGAAUGGAUCCACAUCUACGAAUUCGUUUAUGAUCUGAAAUAUUCAGGUUUGCAGAUCGGAAGAGCACACGU
B18: target 3 C1A,G3A (mixed)
RNA 1: CACCCGUGCAAAAUUGCAGGGGUCUAAAACGACCUGAAUAUUUCAGAUCAAA
RNA 2: GGGAAUGGAUCCACAUCUACGAAUUCGUUUUUGAUCUGAAAUAUUCAGAUAUGCAGAUCGGAAGAGCACACGU
B19: target 3 G19U,U21A (mixed)
RNA 1: CACCCGUGCAAAAUUGCAGGGGUCUAAAACGACCUGAAUAUUUCAGAUCAAA
RNA 2: GGGAAUGGAUCCACAUCUACGAAUUCGUUUAUUAUCUGAAAUAUUCAGGUCUGCAGAUCGGAAGAGCACACGU
B20: target 3 insG 3' of 2,insG 3' of 1 (mixed)
RNA 1: CACCCGUGCAAAAUUGCAGGGGUCUAAAACGACCUGAAUAUUUCAGAUCAAA
RNA 2: GGGAAUGGAUCCACAUCUACGAAUUCGUUUUUGAUCUGAAAUAUUCAGGUGCGUGCAGAUCGGAAGAGCACACGU
B21: target 3 G3C,U7G (mixed)
RNA 1: CACCCGUGCAAAAUUGCAGGGGUCUAAAACGACCUGAAUAUUUCAGAUCAAA
RNA 2: GGGAAUGGAUCCACAUCUACGAAUUCGUUUUUGAUCUGAAAUAUGCAGCUCUGCAGAUCGGAAGAGCACACGU
B22: target 3 insC 3' of 22,insG 3' of 22 (mixed)
RNA 1: CACCCGUGCAAAAUUGCAGGGGUCUAAAACGACCUGAAUAUUUCAGAUCAAA
RNA 2: GGGAAUGGAUCCACAUCUACGAAUUCGUUUCGUUGAUCUGAAAUAUUCAGGUCUGCAGAUCGGAAGAGCACACGU
B23: target 3 C6G,U8G (mixed)
RNA 1: CACCCGUGCAAAAUUGCAGGGGUCUAAAACGACCUGAAUAUUUCAGAUCAAA
RNA 2: GGGAAUGGAUCCACAUCUACGAAUUCGUUUUUGAUCUGAAAUAGUGAGGUCUGCAGAUCGGAAGAGCACACGU

In the data set the target is T1, EsCas13d, nuclease-dead. Description: crRNA (strand 1, pre-loaded); Mg2+; 40 mM Tris-HCl pH 7.5, 150 mM NaCl, 6 mM MgCl2, 1 mM DTT, 0.1% Tween-20, 0.2 mg/ml BSA; 25 C; 10 min per concentration, then washed. The note with it: tags: His6-TwinStrep-SUMO cleaved; N-terminal SNAP kept (SNAP-Surface 488); label: 3' end held by stalled T7 RNA polymerase.
The Kd is a measure of binding affinity in units of concentration. Read a high Kd as weaker binding. With B1, the Kd stood at 8.5 ± 0.6 nM.
The same measure for B2: 35 ± 7 nM; for B3: 38 ± 5.5 nM; for B4: 20.4 ± 1.75 nM.
Molecule B5 registered a Kd of about 90 nM.
The same measure for B6: 6.59 ± 0.54 nM.
For B7, binding was characterised by a dissociation constant (Kd) of 102 ± 37 nM.
The same measure for B8: 32.5 ± 5.5 nM; for B9: 67.5 ± 12 nM.
The same measure for B10: 20.9 ± 2.15 nM.
The same measure for B11: 59.5 ± 6.5 nM; for B12: 74.5 ± 15 nM.
B13 returned a Kd of 23.6 ± 3 nM.
The same measure for B14: 86.5 ± 19.5 nM; for B15: 4.25 ± 0.335 nM.
Turning to B16, the Kd came out at 70 ± 11 nM.
The same measure for B17: 84 ± 26 nM; for B18: 37.5 ± 13.5 nM.
The same measure for B19: 99.5 ± 14.5 nM.
The same measure for B20: 25.6 ± 4.25 nM.
For the molecule B21, the Kd came out at 60 ± 7.5 nM.
The same measure for B22: 65.5 ± 21.5 nM; for B23: 64 ± 8.5 nM.

The values are drawn from paper PMC10786891, “Massively parallel profiling of RNA-targeting CRISPR-Cas13d”.
